Assay results from ChEMBL document CHEMBL1155708, “Isoaurostatin, a novel topoisomerase inhibitor produced by Thermomonospora alba” (J Nat Prod, 2001).

Substrate: O=C1Oc2cc(O)ccc2/C1=C\c1ccc(O)cc1
Settings: Bos taurus
Description: Activity at calf thymus gland topoisomerase 1 assessed as conversion of supercoiled pBR322 DNA to relaxed form by Lineweaver-Burke plot

B1: DNA topoisomerase (Bos taurus), A0JN73 (protein)
chain: MIFPAAHRALRGLPRPGTRALTRAAMEVALRGVRKILCVAEKNDAAKGIADLLSGGRMRRREGLSRFNKIYEFDYHLCGQNVTMVMTSVSGHLLAHDFRMQFRKWQSCNPLVLFEAEIEKYCPENFVDIKKTLEREAQQCQALVIWTDCDREGENIGFEVIHVCKAVKPSLQVLRARFSEITTRAVRTACENLTEPDQRVSDAVDVRQELDLRIGAAFTRFQTLRLQKIFPEVLAEQLISYGSCQFPTLGFVVERFKAIQAFVPEVFHKIRVTHDHRDGVVEFSWKRHRLFNHTACLVLYQMCMEDPRAMVVEVRSKAKSKWRPQALDTVELEKLASRKLRINAKETMRIAEKLYTQGYISYPRTETNIFPKDLDLAALVEQQTPDPRWGAFARNILERGGPTPRNGNKSDQAHPPIHPTKYTDSLQGDEQRLYELIVRHFLACCSQDAQGQETTVEIDIAQERFVAHGLMILARNYLDVYPYDRWSDKTLPVYEQGTCFQPSTVEMVDGETSPPQLLTEADLIALMEKHGIGTDATHAEHIETIKARMYVGLTPDKRFLPGHLGMGLVEGYDSMGYEMSKPDLRAELEADLKLICEGKKDKLVVLHQQVQKYKQVFIEAVAKARKLDEALSQYFGAATEVAPQDALPAVPEPIRKCPQCSRDMVLKTRKSGGFYLGCTGFPECRSAVWFPDSVLEASRDVSVCPVCQPHPVYRLKFKFKRGSLPPTMPLEFVGCIGGCDETLREILALRFSQGAARVSQPASQTSGYLQASQSLNRMDSGQQGQPRPPVTRPSKALTRTLPPPAVESESNSVTCNCGQEALLLTVRKEGPNQGRQFYKCGSGGCSFFLWADSGHPGAGPPSSASRPPGGPLEHPPGSGTLLGGSSRPGSGGSGGASCLCGQPAVTRTVQKEGPNQGRQFHTCAQPREHQCGFFQWVDENVAPGTFGGPLWPGSRRGTQGLEARSKRPRAGSSDTGSATKKPRKCSLCHQPGHTRPFCPQNR
- Km: 0.0111 µM
